Paper PMC12114895, “Lanthanides-Based Nanoparticles Conjugated with Rose Bengal for FRET-Mediated X-Ray-Induced PDT” (Pharmaceuticals, 2025)
Ends that are not written are not given here. RB = not defined here

Tests used:
[1] = Hydrodynamic size by TDA-ICP-MS; format: physicochemical; conditions: Table 4, listed as AGuIX Ln@Mal-K(RB)DKPPR (Ln = Tb)
Description: TDA experiments were conducted using a TDA-ICP-MS hyphenation between a Sciex P/ACE MDQ instrument and a 7700 Agilent ICP-MS. Fused silica capillaries with an inner diameter of 75 µm and outer diameter of 375 µm, and a total length of 64 cm, were coated with hydroxypropylcellulose (HPC) using a solution of 0.05 g mL^−1 in water. Detection was carried out by ICP-MS at m/z = 158 and m/z = 159 for Gd and Tb detection, respectively. Samples were hydrodynamically injected (0.3psi for 3 s), then mobilized using Tris 10 mM and NaCl 125 mM at 0.7 psi. Between runs, the capillary was flushed at 5 psi for 5 min with the mobilization medium. All measurements were performed at least in duplicates.
The detected peak was fitted by a sum of Gaussian distributions using Origin 8.5 software, according to Equation (8).(8) St=∑i=12Ai/σi 2πexp−t−t0^2/2σi2 where t0 is the peak residence time, and […] are the area under the curve and the temporal variance associated with each species i, respectively.
Under these experimental conditions, the molecular diffusion coefficient D is given by(9) D=Rc2t0/24σ^2=2kBT/6πηDh where Rc is the capillary radius, kB is the Boltzmann constant, T is the temperature, η is the viscosity, and Dh is the hydrodynamic diameter of the solute.
Therefore, using Equation (9), the hydrodynamic diameters can be calculated from the temporal variances measured from the fitted Taylorgram.

Ln luminescence lifetime = format: physicochemical; conditions: D2O, λexc/λdetection = 351/545 nm
Zeta potential = format: physicochemical; conditions: DLS, Zetasizer Nano-Z, He-Ne 633 nm; pH 7.2 mentioned; listed as AGuIX Ln@Mal-K(RB)DKPPR (Ln = Tb)
Description: The zeta potential (ξ) for each NPs was determined using Zetasizer Nano-Z (Malvern, UK) equipped with a He-Ne laser at 633 nm.

[2] = Singlet oxygen production quantum yield; format: physicochemical; conditions: D2O, reference Eosin Y
RB fluorescence lifetime = format: physicochemical; conditions: D2O, λexc = 470 nm; listed as AGuIX Ln@Mal-K(RB)DKPPR (Ln = Tb)
Description: The Ln luminescence lifetime is recorded after excitation at 545 nm for Tb and 313 nm for Gd. The fluorescence lifetime of RB is recorded after excitation at 470 nm ( τf470 ). ^1O2 emission spectra are obtained after excitation at 558 nm (maximum absorption wavelength of RB) but also after excitation at 351 nm for Tb and 273 nm for Gd.
(§1) Absorption spectra were recorded on a UV-3600 UV–visible double beam spectrophotometer (Shimadzu, Marne-La-Vallée, France). Fluorescence spectra were recorded on a Fluorolog FL3-222 spectrofluorimeter (Horiba Jobin Yvon, Palaiseau, France) equipped with a 450 W Xenon lamp and thermostated cell compartment (25 °C), a UV–visible photomultiplier R928 (Hamamatsu Photonics, Hamamatsu, Japan) and an InGaAs infrared detector (DSS-16A020L Electro-Optical System Inc, Phoenixville, PA, USA). The excitation beam was diffracted by a double ruled grating SPEX monochromator (1200 grooves/mm blazed at 330 nm). The emission beam was diffracted by a double ruled grating SPEX monochromator (1200 grooves/mm blazed at 500 nm). Singlet oxygen emission was detected through a double ruled grating SPEX monochromator (600 grooves/mm blazed at 1 µm) and a long-wave pass (780 nm). All spectra were measured in four-face quartz vials.

[3] = Fluorescence quantum yield; format: physicochemical; conditions: D2O, λexc = 558 nm; reference tetraphenylporphyrin
Description: as §1
The fluorescence quantum yield (Φf) is calculated using Equation (6).(6) Φf=Φf0 . If/If0.OD0/OD. (n/n0)^2 where Φf and Φf0, If and If0, OD and OD0, n and n0 are the quantum yields, fluorescence intensities, optical densities, and refractive indices of the sample and reference, respectively.
Tetraphenylporphyrin (TPP) was chosen as the fluorescence reference standard (Φf0 = 0.11, toluene).

U-251 MG cells = assay: Anchorage-dependent clonogenic assay with X-ray irradiation; format: cell-based, human; conditions: [RB] = 1 µM, 24 h, clones after 7 days
NRP-1 = NRP-1 (Homo sapiens, UniProt O14786); assay: NRP-1 binding, competitive assay; conditions: printed in the figure, read-out: IC50 ± SD (NRP-1, Figure 12)
Description: The affinity of AGuIX Ln@Mal-K(RB) and AGuIX Ln@Mal-K(RB)DKPPR to NRP-1 was determined as previously described in terms of IC50 in another study.

Sequence of NRP-1 (O14786 22-923): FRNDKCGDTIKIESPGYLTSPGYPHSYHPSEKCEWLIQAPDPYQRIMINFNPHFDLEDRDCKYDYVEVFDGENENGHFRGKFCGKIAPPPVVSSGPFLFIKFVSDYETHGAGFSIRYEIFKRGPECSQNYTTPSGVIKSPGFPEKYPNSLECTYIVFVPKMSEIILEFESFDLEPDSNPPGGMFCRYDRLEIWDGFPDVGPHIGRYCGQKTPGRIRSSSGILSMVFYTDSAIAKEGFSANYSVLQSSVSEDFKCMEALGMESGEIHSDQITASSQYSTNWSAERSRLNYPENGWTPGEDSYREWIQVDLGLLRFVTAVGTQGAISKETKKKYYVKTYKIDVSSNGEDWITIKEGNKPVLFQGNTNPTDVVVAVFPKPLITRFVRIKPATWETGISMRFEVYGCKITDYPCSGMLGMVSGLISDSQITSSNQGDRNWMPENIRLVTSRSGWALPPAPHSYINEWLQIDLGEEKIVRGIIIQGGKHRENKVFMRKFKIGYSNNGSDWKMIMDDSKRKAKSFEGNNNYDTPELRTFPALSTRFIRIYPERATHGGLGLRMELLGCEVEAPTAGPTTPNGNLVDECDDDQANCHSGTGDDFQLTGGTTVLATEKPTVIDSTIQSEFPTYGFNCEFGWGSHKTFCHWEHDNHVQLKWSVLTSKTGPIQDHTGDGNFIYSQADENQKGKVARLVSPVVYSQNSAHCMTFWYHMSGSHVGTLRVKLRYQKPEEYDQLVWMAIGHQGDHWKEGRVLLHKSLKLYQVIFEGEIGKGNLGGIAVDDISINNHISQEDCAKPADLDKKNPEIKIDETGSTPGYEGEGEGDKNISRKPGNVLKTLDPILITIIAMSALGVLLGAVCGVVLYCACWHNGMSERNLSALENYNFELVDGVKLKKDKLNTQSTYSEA

In the case of “Mal-K(RB)DKPPR [AGuIX Tb@Mal-K(RB)DKPPR, Mal-K(RB)DKPPR conjugated to thiolated AGuIX Tb NPs by thiol-maleimide click chemistry]”, the “percentage of population P1” value [1] is reported as 46%, the “percentage of population P2” value [1] is reported as 54% and the “Size, population P1” value ([1]; Tris 10 mM and NaCl 125 mM) is reported as 5.4 nm. For the same substance, the “Size, population P2” value ([1]; Tris 10 mM and NaCl 125 mM) was 32.0 nm, the “Ln luminescence lifetime τL (Tb)” value (Ln luminescence lifetime) was 345 µs and the “Zeta potential (ζ)” value (Zeta potential) was −14 mV. The “^1O2 quantum yield ΦΔ351(Tb)” value ([2]; λexc = 351 nm) was 0.36, the “^1O2 quantum yield ΦΔ558” value ([2]; λexc = 558 nm, listed as AGuIX Ln@Mal-K(RB)DKPPR (Ln = Tb)) was 0.68 and the “RB fluorescence lifetime τf470” value (RB fluorescence lifetime) was 2.8 ns. For the same substance, the “Fluorescence quantum yield Φf558” value [3] was 0.11, the “Cell survival (clonogenic capability relative to control)” value (U-251 MG cells; X-ray 2 Gy (320 kV, 10 mA, 3 Gy/min), fraction of untreated non-irradiated cells, mean, triplicates from 3 experiments (n = 9)) was 0.43 and the “decrease of cell growth (clones)” value (U-251 MG cells; X-ray 2 Gy, p = 0.02) was 57%.
For “Mal-K(RB)DKPPR [AGuIX Tb@Mal-K(RB)DKPPR] (not fully specified (N-terminus); printed as AGuIX Tb@Mal-K(RB)DKPPR; reading uncertain) [Mal-K(RB)DKPPR conjugated to thiolated AGuIX Tb NPs by thiol-maleimide click chemistry]”, the IC50 (NRP-1) was 6 ± 1.3 nM.
